Measured values: patent US9618524B2, “Method, composition, isolation and identification of a plaque particle and related biomarker” (Plaxgen Inc., priority 2012, dated 2017)

B1: Isoform 2 of Nucleophosmin (protein)
chain: MEDSMDMDMSPLRPQNYLFGCELKADKDYHFKVDNDENEHQLSLRTVSLGAGAKDELHIVEAEAMNYEGSPIKVTLATLKMSVQPTVSLGGFEITPPVVLRLKCGSGPVHISGQHLVAVEEDAESEDEEEEDVKLLSISGKRSAPGGGSKVPQKKVKLAADEDDDDDDEEDDDEDDDDDDFDDEEAEEKAPVKKGQESFKKQEKTPKTPKGPSSVEDIKAKMQASIEKGGSLPKVEAKFINYVKNCFRMTDQEAIQDLWQWRKSL
B2: Isoform 2 of RNA-binding protein 39 (protein)
chain: ADDIDIEAMLEAPYKKDENKLSSANGHEERSKKRKKSKSRSRSHERKRSKSKERKRSRDRERKKSKSRERKRSRSKERRRSRSRSRDRRFRGRYRSPYSGPKFNSAIRGKIGLPHSIKLSRRRSRSKSPFRKDKSPVREPIDNLTPEERDARTVFCMQLAARIRPRDLEEFFSTVGKVRDVRMISDRNSRRSKGIAYVEFVDVSSVPLAIGLTGQRVLGVPIIVQASQAEKNRAAAMANNLQKGSAGPMRLYVGSLHFNITEDMLRGIFEPFGRIESIQLMMDSETGRSKGYGFITFSDSECAKKALEQLNGFELAGRPMKVGHVTERTDASSASSFLDSDELERTGIDLGTTGRLQLMARLAEGTGLQIPPAAQQALQMSGSLAFGAVADLQTRLSQQTEASALAAAASVQPLATQCFQLSNMFNPQTEEEVGWDTEIKDDVIEECNKHGGVIHIYVDKNSAQGNVYVKCPSIAAAIAAVNALHGRWFAGKMITAAYVPLPTYHNLFPDSMTATQLLVPSRR
B3: Thioredoxin (protein)
chain: VKQIESKTAFQEALDAAGDKLVVVDFSATWCGPCKMIKPFFHSLSEKYSNVIFLEVDVDDCQDVASECEVKCMPTFQFFKKGQKVGEFSGANKEKLEATINELV
B4: Selenoprotein P (protein)
chain: ESQDQSSLCKQPPAWSIRDQDPMLNSNGSVTVVALLQASUYLCILQASKLEDLRVKLKKEGYSNISYIVVNHQGISSRLKYTHLKNKVSEHIPVYQQEENQTDVWTLLNGSKDDFLIYDRCGRLVYHLGLPFSFLTFPYVEEAIKIAYCEKKCGNCSLTTLKDEDFCKRVSLATVDKTVETPSPHYHHEHHHNHGHQHLGSSELSENQQPGAPNAPTHPAPPGLHHHHKHKGQHRQGHPENRDMPASEDLQDLQKKLCRKRCINQLLCKLPTDSELAPRSUCCHCRHLIFEKTGSAITUQCKENLPSLCSUQGLRAEENITESCQURLPPAAUQISQQLIPTEASASURUKNQAKKUEUPSN
B5: Dermcidin (protein)
chain: YDPEAASAPGSGNPCHEASAAQKENAGEDPGLARQAPKPRKQRSSLLEKGLDGAKKAVGGLGKLGKDAVEDLESVGKGAVHDVKDVLDSVL

What follows are molecules tested on Tau plaque particles (assay: Mass spectroscopy proteomics, semi-quantitative binding affinity of serum proteins (plaqueproteome, Table 2)). Conditions: higher number = stronger affinity.
Design: species or system human
Procedure, shortened: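 Serum or plasma proteins captured on Thioflavin S-labelled Tau plaque particles (Tau-74, Tau-275 oligomers preformed in PBS at 37° C for 2 h; 1 h co-incubation at 37° C) were isolated by FACS sorting, then tryptically digested and identified by MS/MS (Sequest, human UniProt, strict trypsin).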

| Molecule | Semi-quantitative analysis of proteins binding to different plaque particles: Tau |
| --- | --- |
| B1 | 0 |
| B2 | 0 |
| B3 | 0 |
| B4 | 0 |
| B5 | 0 |

What follows are molecules tested against T1, alpha-synuclein plaque particles (Homo sapiens, UniProt P37840) in the same assay as above. Conditions: higher number = stronger affinity.
T1 construct: 140 amino acids polypeptide
Procedure, shortened: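 AD-subject plasma or serum (800 μL of 50%) mixed with 30 μg preformed alpha-synuclein aggregates for 1 h at 37 °C; Thioflavin S-positive particles isolated by flow sorting. After reduction, acrylamide alkylation and overnight tryptic digestion, serum proteins identified by MS/MS with Sequest and Scaffold.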

| Molecule | Semi-quantitative analysis of proteins binding to different plaque particles: Synuclein |
| --- | --- |
| B1 | 0 |
| B2 | 0 |
| B3 | 0 |
| B4 | 1 |
| B5 | 0 |

The molecules below were run against T2, Abeta-42 plaque particles (Homo sapiens, UniProt P05067) in the same assay as above. Conditions: higher number = stronger affinity.
T2 construct: Abeta 1-42
Procedure, shortened: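 AD patient serum or plasma (50% in PBS) was incubated with Abeta-42 aggregates (30 μg) for 1 h at 37 °C, then stained with Thioflavin S for 30 min. Labeled particles were FACS-sorted, trypsin/Lys-C digested overnight and analyzed by MS/MS. Sequest searched human UniProt; Scaffold/Protein Prophet validated the identifications.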

| Molecule | Semi-quantitative analysis of proteins binding to different plaque particles: Abeta-42 |
| --- | --- |
| B1 | 4 |
| B2 | 2 |
| B3 | 2 |
| B4 | 0 |
| B5 | 2 |

The molecules below were run on Low density cholesterol (Chl small) plaque particles in the same assay as above. Conditions: higher number = stronger affinity.
Design: species or system human
Procedure, shortened: (§1)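 Read-out is MS/MS protein identification (Sequest, strict trypsin, 20 ppm parent tolerance; Scaffold probabilities) of serum proteins bound to flow-sorted cholesterol plaque particles. These particles formed when 50% atherosclerotic serum was incubated with 30 μg cholesterol aggregates for 1 hr at 37° C.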

| Molecule | Semi-quantitative analysis of proteins binding to different plaque particles: Chl small |
| --- | --- |
| B1 | 0 |
| B2 | 0 |
| B3 | 0 |
| B4 | 0 |
| B5 | 0 |

What follows are molecules tested on High Density cholesterol (Chl Large) plaque particles in the same assay as above. Conditions: higher number = stronger affinity.
Design: species or system human
Procedure, shortened: as §1

| Molecule | Semi-quantitative analysis of proteins binding to different plaque particles: Chl Large |
| --- | --- |
| B1 | 0 |
| B2 | 0 |
| B3 | 0 |
| B4 | 0 |
| B5 | 0 |
